Changes are numbered by the printed parent chain. In names and notes the source's numbering stands.
B1: FcεRIα extracellular domain mutant K117D (receptor)
chain: VPQKPKVSLNPPWNRIFKGENVTLTCNGNNFFEVSSTKWFHNGSLSEETNSSLNIVNAKFEDSGEYKCQHQQVNESEPVYLEVFSDWLLLQASAEVVMEGQPLFLRCHGWRNWDVYDVIYYKDGEALKYWYENHNISITNATVEDSGTYYCTGKVWQLDYESEPLNITVIKAPREKYWLQ
B2: FcεRIα extracellular domain mutant D159A (receptor)
chain: B1 chain with D117K, D159A
B3: FcεRIα extracellular domain mutant Y131A (receptor)
chain: B1 chain with D117K, Y131A
B4: FcεRIα extracellular domain mutant W113A (receptor)
chain: B1 chain with W113A, D117K
B5: FcεRIα extracellular domain mutant W87D (receptor)
chain: B1 chain with W87D, D117K
B6: FcεRIα extracellular domain mutant V155A (receptor)
chain: B1 chain with D117K, V155A

Biological target: T1, purified human IgE (Abcam) (human, UniProt P01854-1 1-428)
T1 construct: also called free IgE; secreted IgE
Test: not told

T1 sequence (P01854 other isoform, or with tags, fused parts or gaps): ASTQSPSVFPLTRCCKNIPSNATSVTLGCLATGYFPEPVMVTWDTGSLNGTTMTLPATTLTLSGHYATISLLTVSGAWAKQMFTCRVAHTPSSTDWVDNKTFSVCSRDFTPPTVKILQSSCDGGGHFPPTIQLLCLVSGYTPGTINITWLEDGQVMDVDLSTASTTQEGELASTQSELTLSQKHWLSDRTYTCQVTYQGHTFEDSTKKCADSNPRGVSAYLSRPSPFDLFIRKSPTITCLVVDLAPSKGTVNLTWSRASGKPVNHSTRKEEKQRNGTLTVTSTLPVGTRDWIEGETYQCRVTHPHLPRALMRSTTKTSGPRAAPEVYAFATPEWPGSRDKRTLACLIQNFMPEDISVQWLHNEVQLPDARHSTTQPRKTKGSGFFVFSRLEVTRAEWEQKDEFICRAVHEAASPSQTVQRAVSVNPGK

Point of comparison: B4, “fold affinity reduction over wild type” value 5 fold. Against it:
- B1 — higher, 27 fold
- B2 — lower, 2 fold
- B3 — lower, 3 fold
- B5 — higher, 7 fold
- B6 — higher, 10 fold
